Test results reported in IntAct's records for PubMed 38825040.

Target: lg3bp_human LGALS3BP (UniProt Q08380)
Sequence (Q08380 whole entry): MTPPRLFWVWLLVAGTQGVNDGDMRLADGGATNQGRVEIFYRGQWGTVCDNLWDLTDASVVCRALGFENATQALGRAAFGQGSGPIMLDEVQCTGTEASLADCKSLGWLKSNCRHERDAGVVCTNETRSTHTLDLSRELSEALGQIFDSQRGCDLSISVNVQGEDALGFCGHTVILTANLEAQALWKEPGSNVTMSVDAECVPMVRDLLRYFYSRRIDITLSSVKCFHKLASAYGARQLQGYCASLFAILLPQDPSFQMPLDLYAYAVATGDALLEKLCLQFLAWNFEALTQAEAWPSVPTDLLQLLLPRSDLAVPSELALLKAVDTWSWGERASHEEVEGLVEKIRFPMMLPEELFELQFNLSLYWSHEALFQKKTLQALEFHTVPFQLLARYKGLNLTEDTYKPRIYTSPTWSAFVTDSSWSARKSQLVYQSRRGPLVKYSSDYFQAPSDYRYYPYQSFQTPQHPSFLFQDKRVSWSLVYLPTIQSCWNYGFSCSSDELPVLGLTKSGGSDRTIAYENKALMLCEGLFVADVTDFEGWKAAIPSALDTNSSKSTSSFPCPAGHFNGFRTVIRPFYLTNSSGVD

Sequence of Extracellular sulfatase Sulf-2 (Homo sapiens), Q8IWU5 S583A (Q8IWU5 whole entry S583A): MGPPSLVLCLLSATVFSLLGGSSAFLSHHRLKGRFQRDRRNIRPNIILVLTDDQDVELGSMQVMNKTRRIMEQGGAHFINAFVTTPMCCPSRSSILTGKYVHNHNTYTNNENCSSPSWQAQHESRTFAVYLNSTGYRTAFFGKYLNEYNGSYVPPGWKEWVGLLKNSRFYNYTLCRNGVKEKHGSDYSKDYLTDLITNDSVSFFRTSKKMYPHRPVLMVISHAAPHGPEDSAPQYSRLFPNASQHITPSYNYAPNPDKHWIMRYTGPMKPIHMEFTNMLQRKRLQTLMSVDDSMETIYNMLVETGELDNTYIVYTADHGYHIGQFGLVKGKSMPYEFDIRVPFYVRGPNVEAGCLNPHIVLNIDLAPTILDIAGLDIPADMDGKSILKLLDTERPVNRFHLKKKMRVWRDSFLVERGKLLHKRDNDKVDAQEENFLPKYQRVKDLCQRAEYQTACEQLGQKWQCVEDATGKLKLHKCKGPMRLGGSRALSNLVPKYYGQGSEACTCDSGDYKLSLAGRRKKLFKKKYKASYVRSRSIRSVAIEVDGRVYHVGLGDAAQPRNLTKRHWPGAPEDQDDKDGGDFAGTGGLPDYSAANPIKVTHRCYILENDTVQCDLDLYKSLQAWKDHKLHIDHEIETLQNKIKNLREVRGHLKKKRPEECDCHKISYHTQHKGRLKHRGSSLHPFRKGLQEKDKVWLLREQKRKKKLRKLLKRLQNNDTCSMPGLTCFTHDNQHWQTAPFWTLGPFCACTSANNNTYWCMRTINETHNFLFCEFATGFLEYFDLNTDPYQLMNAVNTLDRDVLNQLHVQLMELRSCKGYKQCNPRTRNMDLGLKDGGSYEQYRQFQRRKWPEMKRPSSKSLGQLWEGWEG

For “Extracellular sulfatase Sulf-2 (Homo sapiens), Q8IWU5 S583A”, the “effect of a mutation on the interaction” value was “increasing interaction strength”.
